One assay addresses C1q (human, UniProt P02745). Description: other, up to 30 ug/mL.
In another assay the target is T1, mouse integrin avb8 (mouse).
T1 chain 1: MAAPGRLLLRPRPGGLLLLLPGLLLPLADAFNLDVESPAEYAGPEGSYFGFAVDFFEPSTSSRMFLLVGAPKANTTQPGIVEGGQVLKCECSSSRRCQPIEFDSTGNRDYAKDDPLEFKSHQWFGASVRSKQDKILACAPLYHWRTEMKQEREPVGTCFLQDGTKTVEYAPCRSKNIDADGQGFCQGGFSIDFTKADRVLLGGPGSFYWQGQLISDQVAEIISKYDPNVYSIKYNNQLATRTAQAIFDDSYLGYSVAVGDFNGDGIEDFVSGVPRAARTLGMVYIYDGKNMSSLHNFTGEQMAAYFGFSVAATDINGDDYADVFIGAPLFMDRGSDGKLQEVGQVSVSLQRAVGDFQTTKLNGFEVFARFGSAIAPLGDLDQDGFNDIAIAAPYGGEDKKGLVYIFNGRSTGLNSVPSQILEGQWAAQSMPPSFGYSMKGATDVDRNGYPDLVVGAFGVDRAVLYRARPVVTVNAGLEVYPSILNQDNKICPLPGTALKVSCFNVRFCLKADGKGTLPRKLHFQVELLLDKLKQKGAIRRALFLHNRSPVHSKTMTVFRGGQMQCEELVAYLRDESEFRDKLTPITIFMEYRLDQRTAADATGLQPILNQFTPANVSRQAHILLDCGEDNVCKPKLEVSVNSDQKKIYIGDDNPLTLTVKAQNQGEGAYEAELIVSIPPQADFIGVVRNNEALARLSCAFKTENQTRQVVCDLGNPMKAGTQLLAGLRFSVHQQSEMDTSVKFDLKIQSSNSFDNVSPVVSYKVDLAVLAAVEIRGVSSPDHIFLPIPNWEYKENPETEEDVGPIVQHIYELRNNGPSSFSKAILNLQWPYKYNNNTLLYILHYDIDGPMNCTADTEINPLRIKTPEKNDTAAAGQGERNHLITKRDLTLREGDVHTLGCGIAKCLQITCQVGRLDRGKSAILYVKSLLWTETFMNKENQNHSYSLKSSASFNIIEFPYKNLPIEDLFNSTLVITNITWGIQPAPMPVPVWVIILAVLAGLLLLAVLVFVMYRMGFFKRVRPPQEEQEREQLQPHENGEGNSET
T1 chain 2: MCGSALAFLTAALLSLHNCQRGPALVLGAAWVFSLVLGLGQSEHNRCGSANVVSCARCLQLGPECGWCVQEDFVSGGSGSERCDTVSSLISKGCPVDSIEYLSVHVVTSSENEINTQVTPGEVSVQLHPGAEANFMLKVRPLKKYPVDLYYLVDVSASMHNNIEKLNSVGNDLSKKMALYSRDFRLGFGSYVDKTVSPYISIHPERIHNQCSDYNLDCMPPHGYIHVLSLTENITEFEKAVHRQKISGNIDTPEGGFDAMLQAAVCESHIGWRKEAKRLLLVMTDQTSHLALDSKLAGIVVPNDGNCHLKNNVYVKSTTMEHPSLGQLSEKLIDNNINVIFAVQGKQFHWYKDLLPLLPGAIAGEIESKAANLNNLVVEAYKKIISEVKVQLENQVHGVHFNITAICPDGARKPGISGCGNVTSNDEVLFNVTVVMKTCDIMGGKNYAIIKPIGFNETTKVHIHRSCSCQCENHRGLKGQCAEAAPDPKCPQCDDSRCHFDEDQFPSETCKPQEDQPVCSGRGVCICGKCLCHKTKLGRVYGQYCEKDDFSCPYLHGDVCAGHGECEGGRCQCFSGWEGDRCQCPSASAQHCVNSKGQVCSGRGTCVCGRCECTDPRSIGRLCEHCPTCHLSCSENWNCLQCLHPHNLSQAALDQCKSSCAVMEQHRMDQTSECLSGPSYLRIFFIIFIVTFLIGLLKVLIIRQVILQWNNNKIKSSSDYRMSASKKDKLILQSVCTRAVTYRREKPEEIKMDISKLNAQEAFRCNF
Description: FACS C8-S cells.

Sequence of C1q (P02745 23-245, chain 1 of 3): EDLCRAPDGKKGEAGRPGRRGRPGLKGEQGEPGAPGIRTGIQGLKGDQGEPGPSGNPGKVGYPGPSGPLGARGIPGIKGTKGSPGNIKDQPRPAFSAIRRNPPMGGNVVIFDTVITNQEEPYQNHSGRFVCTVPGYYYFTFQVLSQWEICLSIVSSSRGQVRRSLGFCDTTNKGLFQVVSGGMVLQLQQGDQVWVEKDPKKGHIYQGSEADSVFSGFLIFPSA
Sequence of C1q (P02746 28-253, chain 2 of 3, further chain): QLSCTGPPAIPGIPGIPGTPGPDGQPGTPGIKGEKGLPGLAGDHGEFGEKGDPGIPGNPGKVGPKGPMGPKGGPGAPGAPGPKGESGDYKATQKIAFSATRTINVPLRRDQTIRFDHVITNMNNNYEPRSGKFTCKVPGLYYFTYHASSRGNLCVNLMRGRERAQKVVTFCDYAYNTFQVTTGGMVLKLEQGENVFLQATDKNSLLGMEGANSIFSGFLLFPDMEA
Sequence of C1q (P02747 29-245, chain 3 of 3, further chain): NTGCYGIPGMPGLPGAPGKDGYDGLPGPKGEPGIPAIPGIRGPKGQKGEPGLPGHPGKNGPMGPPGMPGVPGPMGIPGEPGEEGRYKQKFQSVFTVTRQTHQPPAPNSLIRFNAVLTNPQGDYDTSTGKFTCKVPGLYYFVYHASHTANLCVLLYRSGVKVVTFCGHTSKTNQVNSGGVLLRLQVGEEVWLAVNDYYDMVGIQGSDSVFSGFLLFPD

B1: ADWA11 2.4 IgG (antibody)
chain 1: EVQLVESGGGLVQPGGSLRLSCAASGFNIKDYYMNWVRQAPGKGLEWVGWIDPDQGNTIYEPKFQGRFTISADTSKNSAYLQMNSLRAEDTAVYYCARRLLMDYWGQGTLVTVSSASTKGPSVFPLAPSSKSTSGGTAALGCLVKDYFPEPVTVSWNSGALTSGVHTFPAVLQSSGLYSLSSVVTVPSSSLGTQTYICNVNHKPSNTKVDKKVEPKSCDKTHTCPPCPAPEAAGAPSVFLFPPKPKDTLMISRTPEVTCVVVDVSHEDPEVKFNWYVDGVEVHNAKTKPREEQYNSTYRVVSVLTVLHQDWLNGKEYKCKVSNKALPAPIEKTISKAKGQPREPQVYTLPPSREEMTKNQVSLTCLVKGFYPSDIAVEWESNGQPENNYKTTPPVLDSDGSFFLYSKLTVDKSRWQQGNVFSCSVMHEALHNHYTQKSLSLSPGK
chain 2: DIQMTQSPSSLSASVGDRVTITCRSTKSLSHFNGNTYLFWYQQKPGKAPKRLIYYMSSLASGVPSRFSGSGSGTDFTLTISSLQPEDFATYYCQQSLEYPFTFGGGTKVEIKRTVAAPSVFIFPPSDEQLKSGTASVVCLLNNFYPREAKVQWKVDNALQSGNSQESVTEQDSKDSTYSLSSTLTLSKADYEKHKVYACEVTHQGLSSPVTKSFNRGEC
B1: the binding result with C1q was “no binding”. In the assay with mouse integrin avb8, this molecule displayed an EC50 of 0.145 nM.

A word on the EC50: it is the concentration at which the effect is half-maximal.
